Measured values: the Human Domainome abundance scans (Beltran et al. 2025)

B1: Arginine-glutamic acid dipeptide repeats protein, residues 502 to 543; numbered along this chain, Q9P2R6 (parent)
chain: LKGYACRHCFTTTSKDWHHGGRENILLCTDCRIHFKKYGELP

Variants of: B1
Assay: abundance fitness (aPCA) (normalised: wild type 0, dead -1); higher = more abundant; growth selection in yeast, the domain comes from the species named
Conditions: Homo sapiens

Abundance fitness of substitutions, site by site:
W17: D -0.197; S -0.198; V -0.157; P -0.149; C -0.295; Q -0.213; L -0.186; G -0.154; T -0.227; A -0.191; M -0.195; K -0.274; R -0.276; N -0.276
R7: V -0.098; P -0.293; H -0.441; F -0.185; D -0.142; S 0.021; L -0.067; M -0.02; K 0.087; I -0.188; Q 0.036; Y -0.056; G 0.029; W -0.195; A 0.074; N -0.115; E 0.064
I25: L -0.05; A -0.122; Q -0.099; V -0.015; E -0.048; C -0.258; S -0.185; N -0.298; W -0.073; F -0.213; T -0.04; D -0.16; P -0.141; M -0.15; H -0.169; Y -0.187; G -0.264
T13: E 0.014; Q -0.039; Y -0.223; V -0.125; M -0.185; L -0.223; C -0.164; I -0.282; K 0.018; R 0.012; P -0.484; H -0.045; A -0.054; W -0.31; N -0.043; F -0.179
H19: I -0.045; A -0.048; C -0.033; K -0.047; Y -0.246; P -0.046; R -0.047; T 0.095; S -0.026; G -0.073; E 0.02; F -0.064; M 0.008; D -0.225; W -0.204
H18: Y -0.089; P -0.333; I -0.07; F -0.005; S 0.004; W -0.21; N -0.132; D 0.115; R -0.193; G 0.057; C -0.03; L -0.042; A 0.09; T -0.029; K 0.055; Q 0.09
T12: D -0.141; M -0.241; W -0.669; R -0.141; N -0.251; L -0.338; Y -0.549; P -0.317; S -0.205; K -0.135; A -0.234; F -0.314; Q -0.159; G -0.312; C -0.304; V -0.343; E -0.175
S14: L -0.536; D -0.073; P -0.361; C -0.315; G -0.291; F -0.516; Y -0.473; A -0.228; R -0.451; K -0.066; T -0.226; W -0.657; V -0.476; M -0.455; E -0.223; I -0.454
H8: C -0.259; R -0.229; E -0.348; Q -0.307; W -0.044; K -0.368; P -0.836; Y -0.238; T -0.428; F -0.387; G -0.222; M -0.347; S -0.136; A -0.189; L -0.489; N 0.064; I -0.292
L26: K -0.268; E -0.167; M 0.023; R -0.2; W -0.188; H -0.386; V -0.18; Q -0.376; S -0.36; A -0.311; F -0.354; P -0.21; G -0.307; T -0.05; I 0.004; D -0.244
D16: A -0.358; W -0.515; M -0.397; E -0.15; P -0.701; G -0.342; K -0.154; C -0.633; H -0.501; V -0.412; R -0.451; F -0.48; Q -0.449; N -0.277; L -0.442; T -0.391; Y -0.555; S -0.263
G21: M -0.291; H -0.044; R -0.369; A -0.142; N -0.515; K -0.377; S -0.056; Q -0.222; W -0.493; E -0.154; P -0.24; L -0.274; Y -0.534; I -0.517; D -0.236; V -0.23
N24: M -0.107; S 0; C -0.349; E -0.105; Y -0.249; W -0.189; A -0.146; K -0.157; L -0.191; H -0.094; R -0.146; T -0.239; F -0.242; V -0.297; P -0.261; I -0.299; G -0.026
E23: K -0.136; R -0.255; M -0.187; C -0.159; D 0.011; Q -0.038; Y -0.489; N -0.099; V -0.338; L -0.225; I -0.322; S -0.174; T -0.104; H -0.185; G -0.113
F10: M -0.083; R -0.014; N -0.238; S 0.015; Y -0.101; T -0.099; L -0.068; Q 0.03; H 0.134; A 0.054; V -0.331; P -0.279; I -0.352; W -0.054; K 0.017; D -0.08; C -0.036
C9: L -0.517; V -0.451; R -0.493; N -0.271; M -0.542; K -0.371; T -0.44; S -0.392; G -0.455; P -0.494; D -0.547; W -0.645; Y -0.426; E -0.318; A -0.425
K15: I -0.222; G -0.174; Q -0.049; M -0.064; R -0.053; A -0.107; H -0.041; E 0.007; D -0.099; W -0.489; Y -0.229; V -0.091; S -0.162; N -0.324; P -0.095; C -0.313; T -0.002
C6: V -1.12; Y -1.05; T -0.902; W -1.28
T11: G -0.241; W -0.589; V -0.195; D -0.277; E -0.4; Y -0.607; L -0.375; N -0.168; M -0.413; K -0.172; I -0.204; F -0.561; A -0.136; Q -0.278; S -0.083; R -0.236; P -0.51; C -0.219
R22: K 0.071; L -0.081; Y 0.113; M -0.172; S -0.055; D -0.026; P -0.027; W -0.132; I -0.157; E -0.02; C -0.067; H -0.221; G -0.048; A 0.044; Q 0.029; N 0.008; V -0.039; T 0.011; F -0.058
G20: P -0.375; A -0.16; Y -0.422; C -0.091; D 0.097; V -0.11; S -0.212; Q -0.179; M -0.205; R -0.45; L -0.32; T -0.292; W -0.141; E -0.066; I -0.151; K -0.379; H -0.203
